Test results published in US5948643, “Modulators of BRCA1 activity” (Onyx Pharmaceuticals, Inc., dated 1999).
Values belong to the binder of their own block, whether it stands above or below them.

What was measured:
[1] = molecular target: BRCA1 (1-300) fused to the GAL4 binding domain (human); test: yeast two-hybrid (Example 3)
Protocol: (§1) Two hybrid experiments were conducted to ascertain the regions of the BRCA1 Modulator 091-21A31, Sequence ID No. 1 that interact with BRCA1. The assay was run essentially as described in Example 1. Transformation and growth of yeast cultures were performed essentially as described in U.S. Pat. No. 5,283,173; Chien et al., 1991, Proc. Natl. Acad. Sci. USA, 88: 9578–9582; or Spaargaren, M., et al., (1994) Biochem. J. 300, 303–307.

[2] = molecular target: BRCA1 (1-600) fused to the GAL4 binding domain (human); test: yeast two-hybrid (Example 3)
Protocol: as §1

[3] = molecular target: T1, vector control (GAL4 binding domain vector without insert) (Saccharomyces cerevisiae (strain ATCC …, UniProt P04386)); test: yeast two-hybrid (Example 3); vector control
Protocol: as §1

[4] = molecular target: BRCA1 (1-300) fused to the GAL4 binding domain (human); test: yeast two-hybrid, b-galactosidase
Protocol: (§2) The experiment was conducted using the two-hybrid assay as described in U.S. Pat. No. 5,283,173, or Chien et al., 1991, Proc. Natl. Acad. Sci. USA, 88: 9578–9582. The cDNAs that encode 091-1F84, Sequence ID No. 3, 091-21A31, Sequence ID No. 1 and 091-132Q20, Sequence ID No. 5 were fused to the GAL 4 activation domain, and those regions of BRCA1 shown in the table were fused to the binding domain of GAL4. The "+" sign is a subjective measure of the amount of b-galactosidase activity. One "+" being the lowest, and three "+++" being the highest activity.
(§3) Experiments were conducted to ascertain which regions of BRCA1 interact with the three BRCA1 Modulators described in Example 1. The experiment was conducted using the two-hybrid assay as described in U.S. Pat. No. 5,283,173, or Chien et al., 1991, Proc. Natl. Acad. Sci. USA, 88: 9578–9582. The cDNA that encodes the 091-1F84, Sequence ID No. 3, 091-21A31, Sequence ID No. 1, and 091-132Q20, Sequence ID No. 5 was fused to the GAL4 activation domain, and those regions of BRCA1 shown in Table 1 and that contain BRCA1 amino acids 1–300, 1–600, or 8–1293 were fused to the binding domain of GAL4. Controls consisted of the vector, or bcl2 fused to the GAL4 binding domain (See, U.S. Pat. 5,539,085).

[5] = molecular target: T1, vector control (GAL4 binding domain …); test: yeast two-hybrid, b-galactosidase; vector control
Protocol: as §2, §3

[6] = molecular target: GAL4-BRCA1 (8-1293): BRCA1 amino acids 8-1293 fused to the GAL4 binding domain (human); test: yeast two-hybrid (Example 3)
Protocol: as §1

- binding result [1]: no binding
- binding result [2]: no binding
- binding result [3]: no binding
B1: 091-21A31, Sequence ID No. 1 fragment containing amino acids 1-300 fused to the GAL4 activation domain (other)
chain: MPIRALCTICSDFFDHSRDVAAIHCGHTFHLQCLIQWFETAPSRTCPQCRIQVGKRTIINKLFFDLAQEEENVLDAEFLKNELDNVRAQLSQKDKEKRDSQVIIDTLRDTLEERNATVVSLQQALGKAEMLCSTLKKQMKYLEQQQDETKQAQEEARRLRSKMKTMEQIELLLQSQRPEVEEMIRDMGVGQSAVEQLAVYCVSLKKEYENLKEARKASGEVADKLRKDLFSSRSKLQTVYSELDQAKLELKSAQKDLQSADKEIMSLKKKLTMLQETLNLPPVASETVDRLVLESPAPVE

- binding result [4]: no binding
- binding result [5]: no binding
B2: BRCA1 Modulator Protein 091-132Q20, Sequence ID No. 5, fused to the GAL4 activation domain (other)
chain: ARGGAEEATEAGRGGRRRSPRQKFEIGTMEEAGICGLGVKADMLCNSQSNDILQHQGSNCGGTSNKHSLEEDEGSDFITENRNLVSPAYCTQESREEIPGGEARTDPPDGQQDSECNRNKEKTLGKEVLLLMQALNTLSTPEEKLAALCKKYADLLEESRSVQKQMKILQKKQAQIVKEKVHLQSEHSKAILARSKLESLCRELQRHNKTLKEENMQQAREEEERRIEATAHFQITLNEIQAQLEQHDIHNAKLRQENIELGEKLKKLIEQYALREEHIDKVFKHKELQQQLVDAKLQQTTQLIKEADEKHQREREFLLKEATESRHKYEQMKQQEVQLKQQLSLYMDKFEEFQTTMAKSNELFTTFRQEMEKMTKKIKKKKKKLE

- binding result [4]: no binding
- binding result [5]: no binding
B3: BRCA1 Modulator Protein 091-21A31, Sequence ID No. 1, fused to the GAL4 activation domain (other)
chain: MPIRALCTICSDFFDHSRDVAAIHCGHTFHLQCLIQWFETAPSRTCPQCRIQVGKRTIINKLFFDLAQEEENVLDAEFLKNELDNVRAQLSQKDKEKRDSQVIIDTLRDTLEERNATVVSLQQALGKAEMLCSTLKKQMKYLEQQQDETKQAQEEARRLRSKMKTMEQIELLLQSQRPEVEEMIRDMGVGQSAVEQLAVYCVSLKKEYENLKEARKASGEVADKLRKDLFSSRSKLQTVYSELDQAKLELKSAQKDLQSADKEIMSLKKKLTMLQETLNLPPVASETVDRLVLESPAPVEVNLKLRRPSFRDDIDLNATFDVDTPPARPSSSQHGYYEKLCLEKSHSPIQDVPKKICKGPRKESQLSLGGQSCAGEPDEELVGAFPIFVRNAILGQKQPKRPRSESSCSKDVVRTGFDGLGGRTKFIQPTDTVMIRPLPVKPKTKVKQRVRVKTVPSLFQAKLDTFLWS

- binding result [1]: no binding
- binding result [2]: no binding
- binding result [6]: no binding
- binding result [3]: no binding
B4: 091-21A31, Sequence ID No. 1 fragment containing amino acids 300-469 fused to the GAL4 activation domain (other)
chain: EVNLKLRRPSFRDDIDLNATFDVDTPPARPSSSQHGYYEKLCLEKSHSPIQDVPKKICKGPRKESQLSLGGQSCAGEPDEELVGAFPIFVRNAILGQKQPKRPRSESSCSKDVVRTGFDGLGGRTKFIQPTDTVMIRPLPVKPKTKVKQRVRVKTVPSLFQAKLDTFLWS

- binding result [1]: no binding
- binding result [3]: no binding
B5: 091-21A31, Sequence ID No. 1 fragment containing amino acids 78-469 fused to the GAL4 activation domain (other)
chain: FLKNELDNVRAQLSQKDKEKRDSQVIIDTLRDTLEERNATVVSLQQALGKAEMLCSTLKKQMKYLEQQQDETKQAQEEARRLRSKMKTMEQIELLLQSQRPEVEEMIRDMGVGQSAVEQLAVYCVSLKKEYENLKEARKASGEVADKLRKDLFSSRSKLQTVYSELDQAKLELKSAQKDLQSADKEIMSLKKKLTMLQETLNLPPVASETVDRLVLESPAPVEVNLKLRRPSFRDDIDLNATFDVDTPPARPSSSQHGYYEKLCLEKSHSPIQDVPKKICKGPRKESQLSLGGQSCAGEPDEELVGAFPIFVRNAILGQKQPKRPRSESSCSKDVVRTGFDGLGGRTKFIQPTDTVMIRPLPVKPKTKVKQRVRVKTVPSLFQAKLDTFLWS

- binding result [4]: no binding
- binding result [5]: no binding
B6: BRCA1 Modulator Protein 091-1F84, Sequence ID No. 3, fused to the GAL4 activation domain (other)
chain: ARESLSLPSMLRDAAIGTTPFSTCSVGTWFTPSAPQEKSTNTSQTGLVGTKHSTSETEQLLCGRPPDLTALSRHDLEDNLLSSLVILEVLSRQLRDWKSQLAVPHPETQDSSTQTDTSHSGITNKLQHLKESHEMGQALQQARNVMQSWVLISKELISLLHLSLLHLEEDKTTVSQESRRAETLVCCCFDLLKKLRAKLQSLKAEREEARHREEMALRGKDAAEIVLEAFCAHASQRISQLEQDLASMREFRGLLKDAQTQLVGLHAKQEELVQQTVSLTSTLQQDWRSMQLDYTTWTALLSRSRQLTEKLTVKSQQALQERDVAIEEKQEVSRVLEQVSAQLEECKGQTEQLELENSRLATDLRAQLQILANMDSQLKELQSQHTHCAQDLAMKDELFCQLTQSNEEQAAQWQKEEMALKHMQAELQQQQAVLAKEVRDLKETLEFADQENQVAHLELGQVECQLKTTLEVLRERSLQCENLKDTVENLTAKLASTIADNQEQDLEKTRQYSQKLRLLTEQLQSLTLFLQTKLKEKTEQETLLLSTACPPTQEHPLPNDRTFLGSILTAVADEEPESTPVPLLGSDKSAFTRVASMVSLQPAETPGMEESLAEMSIMTTELQSLCSLLQESKEEAIRTLQRKICELQVRLQAQEEQHQEVQKAKEADIEKLNQALCLRYKNEKELQEVIQQQNEKILEQIDKSGELISLREEVTHLTRSLRRAETETKVLQEALAGQLDSNCQPMATNWIQEKVWLSQEVDKLRVMFLEMKNEKEKLMIKFQSHRNILEENLRRSDKELEKLDDIVQHIYKTLLSIPEVVRGCRELQGLLEFLS
